Reference: article PMC6232179 (Scientific Reports, 2018)

How the values were obtained:
IRE1-NLD = assay: MST, COX-2 titrated to RED-labeled IRE1-NLD; format: binding; details: red labelled IRE1-NLD, Suppl. Fig. S9
Procedure: MST was carried out using a Monolith NT.115 instrument (NanoTemper). To evaluate COX-2 binding to IRE1-NLD, an increasing concentration of purified COX-2 protein (0–10 µM) was incubated with RED-labeled purified IRE1-NLD protein (NanoTemper; as per manufacturer’s protocol). The reverse was also performed, with RED-labeled purified COX-2 incubated with an increasing concentration of purified IRE1-NLD. Positive (cyclophilin A) and negative controls (carbonic anhydrase) were included. […] Positive (cyclophilin A) and negative controls (carbonic anhydrase) were included. […] Experiments were done in triplicate and data evaluation was performed using the Monolith software (NanoTemper).

COX-2 peroxidase = details: COX-2 H374Y mutant; cited from earlier work
Excerpt: Thus, we generated a cell line overexpressing His-tagged COX-2 (HEK293 COX-2 OE) as well as a cell line overexpressing the His-tagged COX-2 H374Y mutant (Fig. 6A), which has a 300-fold reduction in peroxidase activity.

binding to IRE1-NLD (MST), wild-type and H374Y (IRE1-NLD): bound to IRE1-NLD
B1: COX-2 H374Y: COX-2 H374Y mutant protein (protein)
chain: ANPCCSHPCQNRGVCMSVGFDQYKCDCTRTGFYGENCSTPEFLTRIKLFLKPTPNTVHYILTHFKGFWNVVNNIPFLRNAIMSYVLTSRSHLIDSPPTYNADYGYKSWEAFSNLSYYTRALPPVPDDCPTPLGVKGKKQLPDSNEIVEKLLLRRKFIPDPQGSNMMFAFFAQHFTHQFFKTDHKRGPAFTNGLGHGVDLNHIYGETLARQRKLRLFKDGKMKYQIIDGEMYPPTVKDTQAEMIYPPQVPEHLRFAVGQEVFGLVPGLMMYATIWLREHNRVCDVLKQEHPEWGDEQLFQTSRLILIGETIKIVIEDYVQHLSGYHFKLKFDPELLFNKQFQYQNRIAAEFNTLYHWYPLLPDTFQIHDQKYNYQQFIYNNSILLEHGITQFVESFTRQIAGRVAGGRNVPPAVQKVSQASIDQSRQMKYQSFNEYRKRFMLKPYESFEELTGEKEMSAELEALYGDIDAVELYPALLVEKPRPDAIFGETMVEVGAPFSLKGLMGNVICSPAYWKPSTFGGEVGFQIINTASIQSLICNNVKGCPFTSFSVPDPELIKTVTINASSSRSGLDDINPTVLLKERSTEL
modifications: left off: His6, end not stated, state not stated
notes: COX-2 H374Y mutant protein
fold reduction in peroxidase activity (COX-2 peroxidase): 300 fold
